According to PMC3867403:
Each block holds one substance with its values, some of them ahead of it.

Key:
[1] = molecular target: ALK5-Flag (transforming growth factor-β receptor 1, TGFBR1) (UniProt P36897)
[2] = molecular target: ALK5-Flag (transforming growth factor-β receptor 1, TGFBR1) (UniProt P36897); remark: listed apart in the source

UniProt P36897, sequence (P36897 34-503): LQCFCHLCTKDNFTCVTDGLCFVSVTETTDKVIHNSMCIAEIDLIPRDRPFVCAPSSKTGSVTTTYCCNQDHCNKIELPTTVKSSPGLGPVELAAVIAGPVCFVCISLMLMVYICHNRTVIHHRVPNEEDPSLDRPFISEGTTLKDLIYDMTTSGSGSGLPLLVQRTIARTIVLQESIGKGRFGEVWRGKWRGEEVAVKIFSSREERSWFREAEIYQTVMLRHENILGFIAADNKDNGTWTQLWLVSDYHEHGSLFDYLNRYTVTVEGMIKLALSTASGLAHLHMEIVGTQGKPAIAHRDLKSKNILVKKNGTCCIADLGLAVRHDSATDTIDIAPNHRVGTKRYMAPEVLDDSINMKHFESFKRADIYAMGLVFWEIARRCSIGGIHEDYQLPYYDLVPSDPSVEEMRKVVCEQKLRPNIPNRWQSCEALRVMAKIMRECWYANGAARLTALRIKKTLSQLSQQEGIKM

- rate constant 1 of healing of scratched HTCE cells, GST-Lum with the ALK5 inhibitor SB431542 (10 µM); monophasic, no rate constant 2 [1]: 1.89 Δ%/h
- rate constant 1 of healing of scratched HTCE cells, GST-Lum in basic medium [2]: 5.37 Δ%/h
- rate constant 2 of healing of scratched HTCE cells, GST-Lum in basic medium [2]: 14.8 Δ%/h
Substance: GST-Lum (recombinant GST-lumican fusion protein) (from UniProt P51885 19-338) (natural protein)

- rate constant 1 of healing of scratched HTCE cells, GST-LumC50 in basic medium [2]: 5.35 Δ%/h
- rate constant 2 of healing of scratched HTCE cells, GST-LumC50 in basic medium [2]: 14 Δ%/h
Substance: GST-LumC50 (GST fusion with the C-terminal 50 amino acids of Lum) (domain or fragment)

- rate constant 1 of healing of scratched HTCE cells, LumC13 peptide [2]: 4.62 Δ%/h
- rate constant 2 of healing of scratched HTCE cells, LumC13 peptide [2]: 13.5 Δ%/h
Substance: LumC13 peptide (the last C-terminal 13 amino acids of Lum)

- rate constant 1 of healing of scratched HTCE cells, LumC13C-A peptide [2]: 5.1 Δ%/h
- rate constant 2 of healing of scratched HTCE cells, LumC13C-A peptide [2]: 13.9 Δ%/h
Substance: LumC13C-A peptide (LumC13 with the cysteine substituted with alanine)
